The source of these data is patent US20240279318A1 (NANJING LEGEND BIOTECH, published 2024).

Assay [1] concerns the target ATG9A peptide/HLA-A*02:01 complex (recombinant) (human). Briefly: SPR. Background: In SPR one partner is held on a chip, and binding of the other changes the refractive index at the surface.
Assay [2] addresses BRCA2 peptide/HLA-A*02:01 complex (recombinant) (human). Nature of the assay: SPR.
Assay [3] deals with CDC14A peptide/HLA-A*02:01 complex (recombinant) (human). Briefly: SPR.
Assay [4] has as its target NR2E1 peptide/HLA-A*02:01 complex (recombinant) (human). Briefly: SPR.
For assay [5], the target named is OR1I1 peptide/HLA-A*02:01 complex (recombinant) (human). Briefly: SPR.
For assay [6], the target named is OR51B6 peptide/HLA-A*02:01 complex (recombinant) (human). Nature of the assay: SPR.
Assay [7] addresses PTP4A1 peptide/HLA-A*02:01 complex (recombinant) (human). Nature of the assay: SPR.
For assay [8], the target named is RP1 peptide/HLA-A*02:01 complex (recombinant) (human, UniProt P16213 21-119 (Pongo pygmaeus entry)). Nature of the assay: SPR.
Assay [9] addresses RCL1 peptide/HLA-A*02:01 complex (recombinant) (human, UniProt P16213 21-119 (Pongo pygmaeus entry)). Nature of the assay: SPR.
For assay [10], the target named is ZNF566 peptide/HLA-A*02:01 complex (recombinant) (human). Briefly: SPR.
Assay [11] has as its target T1, AFP158/HLA-A*02:01 complex (human).
T1 construct: biotinylated on the BSP by BirA for ELISA and panning; also called biotinylated AFP158/HLA-A*02:01 complex; Bio-AFP158
Nature of the assay: SPR; vs AS170036 VL1VH1.

Assay [12] addresses T1, AFP158/HLA-A*02:01 complex. Nature of the assay: SPR; vs AS170036 VL1VH1. This is another data set of the same source.
Assay [13] concerns the target T1, AFP158/HLA-A*02:01 complex. Briefly: SPR, crude scFv captured.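 Also: Peptide–MHC complex flowed at several concentrations over sensorchip-captured scFv, Kd derived from on- and off-rates obtained from the association and dissociation curves.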
Experimental: The experiment was carried out as follows. The crude scFv protein were captured onto the sensorchip. Different concentrations (320, 160, 40 nM) of AFP158/HLA-A*02:01 complex flowed over the sensorchip surface, and were allowed to bind the antibody fragment for 100 s followed by injection of the running buffer to allow dissociation of the complex. On-rate (kd) and off-rate (kd) were calculated based on association and dissociation curve, and were used to estimate the equilibrium dissociation constant (KD).

In general, Kd refers to a measure of binding affinity in units of concentration. Read a high Kd as weaker binding.

Read-outs that look alike come from different tables or passages of the source.

B1: AS170036 VL1VH1-VHG56N (scFv)
scFv: QSALTQPRSVSGSPGQSVTISCAGTSSDVGSENYVSWYQQHPGKAPKLMIYQVNKRASGVPDRFSGSKSGNTASLTISGLQAEDEADYYCASYRSSDHNIVFGGGTKLTVLGGGGSGGGGSGGGGSEVQLVESGGGLVQPGGSLRLSCAASGFTFSSYAMSWVRQAPGKGLEWVSTINSGTNSPYYADSVKGRFTISRDNSKNTLYLQMNSLRAEDTAVYYCAKNFFDGSWFLGPPAMDYWGQGTLVTVSSHHHHHH
On to B1, for which the binding result in assay [1], in assay [2], in assay [3], in assay [4], in [5] and in [6] was “no binding (tested: all below 3.5 RU)” in each case. For the same molecule, the binding result in assay [7], in assay [8], in assay [9] and in assay [10] was “no binding (tested: all below 3.5 RU)” in each case. For the same molecule, the Affinity increase in assay [11] was > 2 fold; in [12], 2.5 fold. The same molecule showed a Kd in [13] of 0.092 µM.

B2: AS170036 VL1VH1-VLH98Q (scFv)
scFv: QSALTQPRSVSGSPGQSVTISCAGTSSDVGSENYVSWYQQHPGKAPKLMIYQVNKRASGVPDRFSGSKSGNTASLTISGLQAEDEADYYCASYRSSDQNIVFGGGTKLTVLGGGGSGGGGSGGGGSEVQLVESGGGLVQPGGSLRLSCAASGFTFSSYAMSWVRQAPGKGLEWVSTINSGTGSPYYADSVKGRFTISRDNSKNTLYLQMNSLRAEDTAVYYCAKNFFDGSWFLGPPAMDYWGQGTLVTVSSHHHHHH
B2: the binding result in assay [2], in assay [3], in assay [4], in assay [5], in assay [6] and in assay [8] was “no binding (tested: all below 3.5 RU)” throughout. Besides, the binding result in assay [9] and in assay [10] was “no binding (tested: all below 3.5 RU)” each time. Also, the Affinity increase in [11] was > 2 fold.

B3: AS170036 VL1VH1-VLH98F (scFv)
scFv: QSALTQPRSVSGSPGQSVTISCAGTSSDVGSENYVSWYQQHPGKAPKLMIYQVNKRASGVPDRFSGSKSGNTASLTISGLQAEDEADYYCASYRSSDFNIVFGGGTKLTVLGGGGSGGGGSGGGGSEVQLVESGGGLVQPGGSLRLSCAASGFTFSSYAMSWVRQAPGKGLEWVSTINSGTGSPYYADSVKGRFTISRDNSKNTLYLQMNSLRAEDTAVYYCAKNFFDGSWFLGPPAMDYWGQGTLVTVSSHHHHHH
B3: the binding result in assay [2], in [3], in assay [4], in [5], in assay [6] and in [7] was “no binding (tested: all below 3.5 RU)” throughout. Moreover, the binding result in assay [8], in [9] and in assay [10] was “no binding (tested: all below 3.5 RU)” throughout. For the same molecule, in [11], the Affinity increase is > 2 fold.

B4: AS170036 VL1VH1-VHG108A (scFv)
scFv: QSALTQPRSVSGSPGQSVTISCAGTSSDVGSENYVSWYQQHPGKAPKLMIYQVNKRASGVPDRFSGSKSGNTASLTISGLQAEDEADYYCASYRSSDHNIVFGGGTKLTVLGGGGSGGGGSGGGGSEVQLVESGGGLVQPGGSLRLSCAASGFTFSSYAMSWVRQAPGKGLEWVSTINSGTGSPYYADSVKGRFTISRDNSKNTLYLQMNSLRAEDTAVYYCAKNFFDGSWFLAPPAMDYWGQGTLVTVSSHHHHHH
Regarding B4, the binding result in assay [1], in [2], in assay [3], in [4], in assay [5] and in [7] was “no binding (tested: all below 3.5 RU)” in each case. Further, the binding result in assay [8], in [9] and in assay [10] was “no binding (tested: all below 3.5 RU)” throughout. In addition, the Affinity increase was > 2 fold in assay [11] and 5.5 fold in assay [12]. In [13], this molecule registered a dissociation constant Kd of 0.042 µM.

B5: AS170036 VL1VH1-VLH98I (scFv)
scFv: QSALTQPRSVSGSPGQSVTISCAGTSSDVGSENYVSWYQQHPGKAPKLMIYQVNKRASGVPDRFSGSKSGNTASLTISGLQAEDEADYYCASYRSSDINIVFGGGTKLTVLGGGGSGGGGSGGGGSEVQLVESGGGLVQPGGSLRLSCAASGFTFSSYAMSWVRQAPGKGLEWVSTINSGTGSPYYADSVKGRFTISRDNSKNTLYLQMNSLRAEDTAVYYCAKNFFDGSWFLGPPAMDYWGQGTLVTVSSHHHHHH
Turning to B5, the binding result in [2], in assay [3], in [4], in assay [5], in assay [6] and in [7] was “no binding (tested: all below 3.5 RU)” in each case. The binding result in [8], in [9] and in assay [10] was “no binding (tested: all below 3.5 RU)” in each case. The Affinity increase in [11] was > 2 fold.

B6: AS170036 VL1VH1-VHG108D (scFv)
scFv: QSALTQPRSVSGSPGQSVTISCAGTSSDVGSENYVSWYQQHPGKAPKLMIYQVNKRASGVPDRFSGSKSGNTASLTISGLQAEDEADYYCASYRSSDHNIVFGGGTKLTVLGGGGSGGGGSGGGGSEVQLVESGGGLVQPGGSLRLSCAASGFTFSSYAMSWVRQAPGKGLEWVSTINSGTGSPYYADSVKGRFTISRDNSKNTLYLQMNSLRAEDTAVYYCAKNFFDGSWFLDPPAMDYWGQGTLVTVSSHHHHHH
Regarding B6, the binding result in assay [1], in assay [2], in [3], in assay [4], in assay [5] and in assay [7] was “no binding (tested: all below 3.5 RU)” throughout. Besides, the binding result in assay [8], in [9] and in assay [10] was “no binding (tested: all below 3.5 RU)” throughout. Moreover, the Affinity increase is > 2 fold in assay [11] and 5.5 fold in assay [12]. In assay [13], this molecule showed a Kd of 0.042 µM.
